Series [1] deals with T1, SMUG1 WT (UniProt Q53HV7).
T1 sequence: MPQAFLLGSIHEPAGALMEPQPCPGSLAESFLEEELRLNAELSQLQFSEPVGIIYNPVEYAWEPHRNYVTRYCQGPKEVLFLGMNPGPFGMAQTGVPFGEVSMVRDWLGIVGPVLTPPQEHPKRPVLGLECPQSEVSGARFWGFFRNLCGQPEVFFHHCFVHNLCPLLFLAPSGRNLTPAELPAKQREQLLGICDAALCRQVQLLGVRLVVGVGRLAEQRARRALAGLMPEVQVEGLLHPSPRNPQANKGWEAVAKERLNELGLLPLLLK
The experiment in a line: EMSA. As to conditions: apparent Kd; abasic substrate taken as THF37; tetrahydrofuran abasic analog (Z, written N) at position 20 of top strand, opposite T; EMSA: 8 nM DNA, 20 mM HEPES pH 7.5, 150 mM NaCl, 2 mM DTT (5 mM for SMUG1), 5% glycerol, 0.5 mg/ml BSA (0.5 mg/l [sic] for SMUG1), +/- 1.5 mM MgCl2, RT 20 min. (In general: A gel shift assay detects complexes by their altered migration in electrophoresis.)

Series [2] deals with single-strand selective monofunctional DNA glycosylase (SMUG1), His-tagged (UniProt Q53HV7). The experiment in a line: single-molecule DNA tightrope assay, dual-colour Qdot co-localisation; 605 Qdot-labelled His-SMUG1 (2.6 nM) injected first, then 705 Qdot-labelled Flag-UV-DDB (3.1 nM), on DNA tightropes with one abasic (THF) site every 2 kb; 25 mM HEPES pH 7.5, 150 mM NaCl, 0.1 mg/ml BSA, 50 nM biotin, 1 mM DTT; RT.

Series [3] has as its target T1, SMUG1 WT. Description: single-molecule DNA tightrope. As to conditions: tetrahydrofuran abasic site every 2 kb, EMSA: 8 nM DNA, 20 mM HEPES pH 7.5, 150 mM NaCl, 2 mM DTT (5 mM for SMUG1), 5% glycerol, 0.5 mg/ml BSA (0.5 mg/l [sic] for SMUG1), +/- 1.5 mM MgCl2, RT 20 min.
Series [4] concerns the target T2, UV-DDB (DDB1-DDB2 heterodimer) (UniProt Q16531;Q92466 1-1140;1-427). Description: EMSA; no Mg2+; EMSA: 8 nM DNA, 20 mM HEPES pH 7.5, 150 mM NaCl, 2 mM DTT (5 mM for SMUG1), 5% glycerol, 0.5 mg/ml BSA (0.5 mg/l [sic] for SMUG1), +/- 1.5 mM MgCl2, RT 20 min (30 min for displacement); 5% native gel, 1/2x TBE, 4 C. As to conditions: protein: recombinant, tags: DDB1-6xHis, DDB2-Flag, copies: 1;1, label: 3'-6FAM on top strand, blunt.

Series [5] deals with T2, UV-DDB (DDB1-DDB2 heterodimer). Description: EMSA; 1.5 mM Mg2+; EMSA: 8 nM DNA, 20 mM HEPES pH 7.5, 150 mM NaCl, 2 mM DTT (5 mM for SMUG1), 5% glycerol, 0.5 mg/ml BSA (0.5 mg/l [sic] for SMUG1), +/- 1.5 mM MgCl2, RT 20 min (30 min for displacement); 5% native gel, 1/2x TBE, 4 C. The note with it: protein: recombinant, tags: DDB1-6xHis, DDB2-Flag, copies: 1;1, label: 3'-6FAM on top strand, blunt.

Where a chain is given by its changes, count along the chain named.

T2 sequence (Q16531 whole entry, chain 1 of 2): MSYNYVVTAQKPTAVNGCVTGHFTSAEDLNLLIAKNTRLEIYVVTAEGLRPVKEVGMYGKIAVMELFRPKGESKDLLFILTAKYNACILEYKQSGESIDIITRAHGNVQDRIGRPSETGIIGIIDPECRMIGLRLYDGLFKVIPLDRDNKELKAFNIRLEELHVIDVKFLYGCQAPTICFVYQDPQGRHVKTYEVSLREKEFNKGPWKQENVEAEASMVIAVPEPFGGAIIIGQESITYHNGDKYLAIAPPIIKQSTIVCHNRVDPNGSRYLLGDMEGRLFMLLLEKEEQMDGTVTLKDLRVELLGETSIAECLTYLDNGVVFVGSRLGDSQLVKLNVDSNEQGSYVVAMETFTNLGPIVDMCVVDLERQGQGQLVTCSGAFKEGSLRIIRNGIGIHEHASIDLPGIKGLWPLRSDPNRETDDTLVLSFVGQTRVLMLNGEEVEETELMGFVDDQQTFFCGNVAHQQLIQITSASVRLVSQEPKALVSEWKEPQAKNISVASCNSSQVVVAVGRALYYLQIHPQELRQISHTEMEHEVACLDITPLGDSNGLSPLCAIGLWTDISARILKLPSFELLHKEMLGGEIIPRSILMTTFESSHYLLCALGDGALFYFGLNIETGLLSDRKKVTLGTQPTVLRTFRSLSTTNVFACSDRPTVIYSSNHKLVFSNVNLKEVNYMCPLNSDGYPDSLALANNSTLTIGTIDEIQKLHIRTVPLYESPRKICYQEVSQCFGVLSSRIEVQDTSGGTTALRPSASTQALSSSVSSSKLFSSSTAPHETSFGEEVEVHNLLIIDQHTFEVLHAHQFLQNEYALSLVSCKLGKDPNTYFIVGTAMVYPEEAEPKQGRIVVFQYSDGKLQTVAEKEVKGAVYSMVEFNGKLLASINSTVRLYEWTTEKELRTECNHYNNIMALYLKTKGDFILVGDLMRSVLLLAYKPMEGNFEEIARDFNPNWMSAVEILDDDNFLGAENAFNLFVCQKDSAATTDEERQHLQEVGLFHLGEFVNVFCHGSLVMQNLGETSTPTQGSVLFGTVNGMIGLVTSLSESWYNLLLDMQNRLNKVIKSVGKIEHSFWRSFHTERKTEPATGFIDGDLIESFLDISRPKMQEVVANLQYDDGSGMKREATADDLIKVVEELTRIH
T2 sequence (Q92466 whole entry, chain 2 of 2): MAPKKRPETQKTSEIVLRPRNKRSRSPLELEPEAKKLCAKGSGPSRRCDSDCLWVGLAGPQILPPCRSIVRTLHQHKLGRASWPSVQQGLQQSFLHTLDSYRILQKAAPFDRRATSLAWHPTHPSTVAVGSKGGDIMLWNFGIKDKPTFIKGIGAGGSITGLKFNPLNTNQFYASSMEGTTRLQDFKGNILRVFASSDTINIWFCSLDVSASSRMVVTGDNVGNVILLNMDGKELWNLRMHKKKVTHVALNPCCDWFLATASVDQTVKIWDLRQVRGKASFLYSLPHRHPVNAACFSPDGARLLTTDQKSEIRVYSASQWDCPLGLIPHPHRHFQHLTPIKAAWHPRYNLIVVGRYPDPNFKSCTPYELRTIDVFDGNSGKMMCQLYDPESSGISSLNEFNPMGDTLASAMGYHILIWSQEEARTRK

In the case of “CCGAGTCATTCCTGCAGCGNGTCCATGGGAGTCAAAT / ATTTGACTCCCATGGACTCGCTGCAGGAATGACTCGG [THF37]”, the Kd with SMUG1 WT [1] was 65 nM.

“UV-damaged DNA-binding protein (UV-DDB), DDB1-6xHis/DDB2-Flag heterodimer (from UniProt Q16531 1-1140; Q92466 1-427) (complex)” displayed a percent of all particles co-localised on abasic DNA in series [2] of 15.6%. Turning to “DNA tightrope with one THF site every 2 kb”, the binding was 580 s with SMUG1 WT [3] (bound half-life with equimolar unlabeled UV-DDB, Qdot-labeled SMUG1) and 4950 s with SMUG1 WT [3] (bound half-life, SMUG1 alone, Qdot-labeled).

B1: dU:dA37 (dsDNA)
DNA 1: CCGAGTCATTCCTGCAGCGAGUCCATGGGAGTCAAAT
DNA 2: ATTTGACTCCCATGGACTCGCTGCAGGAATGACTCGG
modifications: dU at position 22 of top strand, opposite dA
Consider B1, for which the Kd was determined as 15 ± 1 nM in series [4] and 52 ± 3.4 nM in series [5].

B2: UD37 (undamaged) (dsDNA)
DNA 1: B1 DNA 1 with U22T
DNA 2: B1 DNA 2
B2: the Kd in series [4] was 31 ± 2 nM; in series [5], 125 ± 9.1 nM.

B3: dU:dG37 (dsDNA)
DNA 1: B1 DNA 1
DNA 2: B1 DNA 2 with A16G
modifications: dU at position 22 of top strand, opposite dG
On to B3, for which the values for the Kd in series [4] (U:G mispair) and in series [5] (U:G mispair) were 18 ± 1.6 nM and 21 ± 2.1 nM, respectively.

B4: 5-hmdU:dG37 (dsDNA)
DNA 1: B1 DNA 1
DNA 2: B1 DNA 2 with A16G
modifications: 5-hydroxymethyl-dU (X, written U) at position 22 of top strand, opposite dG
For B4, the Kd in series [4] (5-hmdU:G mispair) is 16 ± 1.5 nM; in series [5] (5-hmdU:G mispair), 27 ± 1.9 nM.

B5: 5-hmdU:dA37 (dsDNA)
DNA 1: B1 DNA 1
DNA 2: B1 DNA 2
modifications: 5-hydroxymethyl-dU (X, written U) at position 22 of top strand, opposite dA
For the molecule B5, the results for the Kd in series [4] and in series [5] were 14 ± 1.1 nM and 48 ± 3 nM, respectively.

The values are drawn from PMC10250209, “UV-DDB stimulates the activity of SMUG1 during base excision repair of 5-hydroxymethyl-2'-deoxyuridine moieties”.
